{
  "source": "patent US20040265963",
  "proteins": {"B1": {"name": "Recombinant human JAK2 immobilized on agarose beads (protein)", "chain": "MGMACLTMTEMEGTSTSSIYQNGDISGNANSMKQIDPVLQVYLYHSLGKSEADYLTFPSGEYVAEEICIAASKACGITPVYHNMFALMSETERIWYPPNHVFHIDESTRHNVLYRIRFYFPRWYCSGSNRAYRHGISRGAEAPLLDDFVMSYLFAQWRHDFVHGWIKVPVTHETQEECLGMAVLDMMRIAKENDQTPLAIYNSISYKTFLPKCIRAKIQDYHILTRKRIRYRFRRFIQQFSQCKATARNLKLKYLINLETLQSAFYTEKFEVKEPGSGPSGEEIFATIIITGNGGIQWSRGKHKESETLTEQDLQLYCDFPNIIDVSIKQANQEGSNESRVVTIHKQDGKNLEIELSSLREALSFVSLIDGYYRLTADAHHYLCKEVAPPAVLENIQSNCHGPISMDFAISKLKKAGNQTGLYVLRCSPKDFNKYFLTFAVERENVIEYKHCLITKNENEEYNLSGTKKNFSSLKDLLNCYQMETVRSDNIIFQFTKCCPPKPKDKSNLLVFRTNGVSDVPTSPTLQRPTHMNQMVFHKIRNEDLIFNESLGQGTFTKIFKGVRREVGDYGQLHETEVLLKVLDKAHRNYSESFFEAASMMSKLSHKHLVLNYGVCVCGDENILVQEFVKFGSLDTYLKKNKNCINILWKLEVAKQLAWAMHFLEENTLIHGNVCAKNILLIREEDRKTGNPPFIKLSDPGISITVLPKDILQERIPWVPPECIENPKNLNLATDKWSFGTTLWEICSGGDKPLSALDSQRKLQFYEDRHQLPAPKWAELANLINNCMDYEPDFRPSFRAIIRDLNSLFTPDYELLTENDMLPNMRIGALGFSGAFEDRDPTQFEERHLKFLQQLGKGNFGSVEMCRYDPLQDNTGEVVAVKKLQHSTEEHLRDFEREIEILKSLQHDNIVKYKGVCYSAGRRNLKLIMEYLPYGSLRDYLQKHKERIDHIKLLQYTSQICKGMEYLGTKRYIHRDLATRNILVENENRVKIGDFGLTKVLPQDKEYYKVKEPGESPIFWYAPESLTESKFSVASDVWSFGVVLYELFTYIEKSKSPPAEFMRMIGNDKQGQMIVFHLIELLKNNGRLPRPDGCPDEIYMIMTECWNNNVNQRPSFRDLALRVDQIRDNMAG"}},
  "biological_target": "T1, Tkip (tyrosine kinase inhibitor peptide), WLVFFVIFYFFR",
  "T1 chain": "WLVFFVIFYFFR",
  "data": [
    {"protein": "B1", "values": [
      {"measurement": "JAK2 autophosphorylation and JAK2 phosphorylation of IFNGR-1, in vitro kinase assay (32P autoradiography)", "value": "Tkip at 50 µM inhibited both the autophosphorylation of JAK2 as well as JAK2 phosphorylation of IFNGR-1"}
    ]}
  ]
}
